In PMC10959120:

Columns and labels:
[1] = target: MADD (DENN/MADD, RAB3-GEP) (UniProt Q8WXG6); experiment: GFP-Trap co-IP, HA immunoblot; details: reference: wild type; sites T86
[2] = target: RAB-GDI1 (UniProt P31150); experiment: GFP-Trap co-IP, immunoblot; details: reference: wild type; sites T86

binding against the reference [1]: stronger | binding against the reference [2]: stronger
Substance: RAB3A (from UniProt P20336) T86A
